# Source: paper PMC3288308
# Like-named read-outs stand apart in the source and are kept apart here.
# Key:
# [1] = target: Treponema pallidum adhesin protein fragment rTp0483 (recombinant C-terminal portion of Tp0483) (Treponema pallidum); test: SPR
# [2] = target: Treponema pallidum adhesin protein fragment rTp0483 (recombinant C-terminal portion of Tp0483) (Treponema pallidum); test: SPR; remark: listed apart in the source
# [3] = target: Treponema pallidum adhesin protein fragment rTp0483 (recombinant C-terminal portion of Tp0483) (Treponema pallidum); test: SPR; remark: listed apart in the source
# [4] = target: Treponema pallidum adhesin protein fragment rTp0483 (recombinant C-terminal portion of Tp0483) (Treponema pallidum); test: SPR; remark: listed apart in the source
# [5] = target: Treponema pallidum adhesin protein fragment rTp0483 (recombinant C-terminal portion of Tp0483) (Treponema pallidum); test: quartz crystal microbalance
# [6] = target: Treponema pallidum adhesin protein fragment rTp0483 (recombinant C-terminal portion of Tp0483) (Treponema pallidum); test: quartz crystal microbalance; remark: listed apart in the source
# [7] = target: Treponema pallidum adhesin protein fragment rTp0483 (recombinant C-terminal portion of Tp0483) (Treponema pallidum); test: quartz crystal microbalance; remark: listed apart in the source
# [8] = target: Treponema pallidum adhesin protein fragment rTp0483 (recombinant C-terminal portion of Tp0483) (Treponema pallidum); test: quartz crystal microbalance; remark: listed apart in the source
# [9] = target: Human plasma fibronectin (human); test: SPR
# Treponema pallidum adhesin protein fragment rTp0483 (recombinant C-terminal portion of Tp0483) (Treponema pallidum), sequence (O83496 22-374): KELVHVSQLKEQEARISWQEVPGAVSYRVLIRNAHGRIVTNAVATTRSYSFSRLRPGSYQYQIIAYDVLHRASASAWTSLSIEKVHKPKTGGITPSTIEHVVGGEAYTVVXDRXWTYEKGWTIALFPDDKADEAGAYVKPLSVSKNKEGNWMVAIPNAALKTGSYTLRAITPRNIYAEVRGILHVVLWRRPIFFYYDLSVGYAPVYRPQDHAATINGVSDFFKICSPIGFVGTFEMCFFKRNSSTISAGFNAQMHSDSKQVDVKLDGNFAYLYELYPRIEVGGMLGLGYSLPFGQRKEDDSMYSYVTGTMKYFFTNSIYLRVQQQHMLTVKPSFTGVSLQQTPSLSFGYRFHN
substance,measurement,setting,value
Human plasma fibronectin (natural protein),"KA1 (bivalent analyte model, reaction 1)",[1],1.53e+09 M⁻¹
same,"KA2 (bivalent analyte model, reaction 2)",[1],225 1/RU
same,"KA1 (bivalent analyte model, reaction 1)",[2],1.03e+09 M⁻¹
same,"KA2 (bivalent analyte model, reaction 2)",[2],403 1/RU
same,surface mass density of FN bound (SPR) in the presence of anti-Tp0483#1,[2],373 pg/mm^2
same,surface mass density of FN bound (SPR) in the presence of anti-Tp0483#2,[2],270 pg/mm^2
same,"surface mass density of FN bound (SPR), FN alone",[2],282 pg/mm^2
same,"surface mass density of FN bound (SPR), FN preincubated with 20 µg/mL anti-RGD",[2],91 pg/mm^2
same,"surface mass density of FN bound (SPR), FN preincubated with 50 µg/mL anti-RGD",[2],47 pg/mm^2
same,"surface mass density of FN bound (SPR), no antibody",[2],846 pg/mm^2
same,"KA2 (bivalent analyte model, reaction 2)",[3],0.0225 1/RU
same,"KD1 (inverse of KA1, reaction 1 of the bivalent analyte model)",[3],0.65 nM
same,"KA2 (bivalent analyte model, reaction 2)",[4],0.0403 1/RU
same,"KD1 (inverse of KA1, reaction 1 of the bivalent analyte model)",[4],0.97 nM
same,surface mass density of FN bound (QCM),[5],60 pg/mm^2
same,surface mass density of FN bound (QCM),[6],3.5 pg/mm^2
same,surface mass density of FN bound (QCM),[7],1380 pg/mm^2
same,surface mass density of FN bound (QCM),[8],363 pg/mm^2
Type A gelatin,surface mass density of gelatin bound (SPR) on FN adsorbed on the SAM,[9],940 pg/mm^2
same,surface mass density of gelatin bound (SPR) on rTp0483+FN,[9],211 pg/mm^2
"Peptide D2, residues 316-333 of the complete Tp0483 sequence","% FN binding to rTp0483 with the peptide, of FN alone",[9],88%
